Reference: patent US20190225652A1, “GENERATION OF PEPTIDES” (Hexima Limited, priority 2015, published 2019)

Key:
[1] = test system: rOaAEP1b, rOaAEP3, rOaAEP4 and rOaAEP5; experiment: Cyclization assay with rOaAEP1b, rOaAEP3, rOaAEP4 and rOaAEP5 (MALDI/ESI MS); format: biochemical, Oldenlandia affinis; conditions: peptides with added AEP recognition residues, 280 μM, enzymes 19.7 μg mL^−1 total protein, MS
Description: Linear target peptides (280 μM, unless otherwise indicated) were incubated with rOaAEP1b, rOaAEP3, rOaAEP4 or rOaAEP5 (total protein concentration as indicated in the description of figures) in activity buffer (50 mM sodium acetate, 50 mM NaCl, 1 mM ethylenediaminetetraacetic acid [EDTA], 0.5 μM Tris(2-carboxyethyl)phosphine hydrochloride [TCEP], pH 5). The reaction was allowed to proceed for up to 22 hours at room temperature and was analysed by matrix-assisted laser desorption/ionization mass spectrometry (MALDI MS), high performance liquid chromatography (HPLC) or nuclear magnetic resonance (NMR) as appropriate.
(§1) Cyclization or inter-molecular ligation of linear target peptides was monitored by MALDI or ESI MS. In both cases, the reaction mixture (5-50 μL) was de-salted using C18 zip tips (Millipore) and eluted in 4 μL 50-75% v/v acetonitrile, 0.1% v/v trifluoroacetic acid (TFA).
(§2) For MALDI MS, a saturated MALDI matrix solution (α-cyano-4-hyroxycinnamic acid, CHCA, Bruker) prepared in 95% v/v acetonitrile, 0.1% v/v TFA was diluted 1:22 such that the final matrix solution comprised 90% v/v acetonitrile, 0.1% v/v TFA and 1 mM NH4H2PO4. Eluted samples were mixed 1:4 with the MALDI matrix, spotted onto a MALDI plate and analyzed by an Ultraflex III TOF/TOF (Bruker) in positive reflector mode. Data were analyzed using the flexAnalysis program (Bruker).
(§3) For ESI MS, 96 μl of 75% v/v acetonitrile, 01% v/v TFA was added to the de-salted sample. The sample was then injected into a MicroTOF Q (Bruker) and data was collected in positive ionisation mode. The mass of ligated or cyclized product was determined by charge deconvolution using the Compass DataAnalysis program (Bruker).
The ability of activated AEPs (rOaAEP1b, rOaAEP3, rOaAEP4 and rOaAEP5) to cyclize peptide substrates structurally unrelated to cyclotides was tested in the cyclization assay described in the Materials and Methods. The anti-malarial peptide R1 (Harris et al. (2009) J Biol Chem 284(14):9361-9371; Harris et al. (2005) Infect Immun 73(10):6981-6989); Bac2A, a linear derivative of the bovine peptide bactenecin (Wu and Hancock (1999) Antimicrob Agents Ch 43:1274-1276); and the anti-fungal peptide EcAMP1 (Nolde et al. (2011) J Biol Chem 286(28):25145-25153) were produced with additional AEP recognition residues and used as the substrates.
To investigate the sequence requirements for in vitro cyclization, R1 was used as a model peptide. The recognition residues added to this model peptide were sequentially trimmed to determine the minimal requirements for AEP-mediated cyclization. The N- and C-terminal recognition residues were also substituted with alternate amino acids to determine if particular classes of residues were preferred for cyclization by these recombinant AEPs. The ability of activated AEPs (rOaAEP1b, rOaAEP3, rOaAEP4 and rOaAEP5) to cyclize the R1 peptide with varied flanking sequences was then tested in the cyclization assay described in the Materials and Methods (FIG. 10; Table 3).

[2] = test system: rOaAEP1b, rOaAEP3, rOaAEP4 and rOaAEP5; experiment: Intermolecular ligation assay with recombinant AEPs; format: biochemical, Oldenlandia affinis; conditions: target 140 μM, enzymes 19.7 μg mL^−1, 6 h, MALDI-MS
Description: Target peptides (140 μM) were incubated with a ligation partner peptide (700 μM) and a recombinant AEP (rOaAEP1b, rOaAEP3, rOaAEP4 or rOaAEP5 at 19.7 μg mL^−1 total protein) in activity buffer (50 mM sodium acetate, 50 mM NaCl, 1 mM EDTA, 0.5 μM TCEP, pH 5). The reaction was allowed to proceed for up to 22 hours at room temperature and was analysed by MALDI MS or electrospray ionisation (ESI) mass spectrometry as appropriate.
as §1, §2, §3
To investigate the ability of recombinantly produced AEPs to perform inter-molecular ligation (as well as the intra-molecular ligation required to produce backbone-cyclized peptides), target peptides were incubated with ligation partner peptides as well as active enzyme (FIG. 11). The appearance of new linear peptides were tracked. […]

[3] = Protease activity against IQF peptides; format: biochemical; conditions: for P2′ substrate specificity (wt vs L31A IQF peptide): 50 μM IQF peptides, 37° C., initial velocity
Description: FIG. 3 is a graphical representation showing expression of active rOaAEP1b in E. coli. (A) Pooled rOaAEP1b-containing anion exchange fractions pre- and post-activation at low pH were diluted 1:14 and tested for activity against the wildtype internally quenched fluorescence (wtIQF) peptide (11 μM) [SEQ ID NO:21]. Baseline fluorescence from a no-substrate control has been subtracted and the relative fluorescence intensity (RFU) at t=90 minutes is reported. A single representative experiment of two technical replicates is shown. (B) Activated rOaAEP1b was captured by cation exchange and the final product analyzed by SDS-PAGE followed by (i) Instant blue staining and (ii) Western blotting with anti-AEP1b polyclonal rabbit serum.
FIGS. 17A and 17B are graphical representations of substrate specificity of plant and human AEPs for wt (SEQ ID NO:21) and L31A (SEQ ID NO:25) IQF peptide substrates. Initial velocity of recombinant O. affinis AEPs (˜10 μg mL^−1 total protein) (17A) and rhuLEG (1.1 μg mL^−1 total protein) (17B) against 50 μM IQF peptide substrates is shown. The assay was conducted at 37° C. The average of two technical replicates are shown and the error bars report the range.
To assay activity of recombinant AEPs (rOaAEP1b, rOaAEP3, rOaAEP4 or rOaAEP5) against both internally-quenched and other fluorescent peptides, substrate and enzyme were diluted as appropriate in activity buffer (50 mM sodium acetate, 50 mM NaCl, 1 mM EDTA, 0.5 μM TCEP, pH 5). […] The change in fluorescence intensity over time was monitored on a SpectraMax M2 (Molecular Devices) using excitation/emission wavelengths of 320/420 nm (IQF peptides) or 360/460 nm (other fluorescent peptides). […]
IQF peptides that incorporate the P1-P4 as well as the P1′-P4′ residues are, however, effectively targeted by recombinant O. affinis AEPs. These peptides contain a fluorescence donor/quencher pair, with fluorescence observed upon the spatial separation of this pair following enzymatic cleavage. […]

[4] = Protease activity against fluorogenic substrate Z-AAN-MCA; format: biochemical; conditions: enzyme ~5 μg mL^−1 total protein, Z-AAN-MCA 100 μM, 37° C., 60 minutes
Description: FIG. 15 is a graphical representation of the activity of recombinant O. affinis AEPs (˜5 μg mL^−1 total protein) and rhuLEG (1 μg mL^−1 total protein) over time against the fluorogenic substrate Z-AAN-MCA (100 μM). Activity is tracked at 1 minute intervals at 37° C. for 60 minutes using excitation and emission wavelengths of 360 and 460 nm respectively. A single representative experiment is shown. RFU, relative fluorescence units.
To assay activity of recombinant AEPs (rOaAEP1b, rOaAEP3, rOaAEP4 or rOaAEP5) against both internally-quenched and other fluorescent peptides, substrate and enzyme were diluted as appropriate in activity buffer (50 mM sodium acetate, 50 mM NaCl, 1 mM EDTA, 0.5 μM TCEP, pH 5). To assay activity of recombinant human legumain (rhuLEG; R&D systems) against the same substrates, the enzyme was first activated by incubation in 50 mM sodium acetate, 100 mM NaCl, pH 4 (4 μL buffer/1 μL enzyme) for 2 hours at 37° C. Substrates and activated rhuLEG were diluted in 50 mM acetate, 0.1% v/v triton X 100, 0.5 μM TCEP pH 5.5 or in 50 mM MES, 250 mM NaCl, pH 5 as required. Diluted enzyme and substrate were added to black, flat bottomed microtiter plates in a total assay volume of 100-200 μL. The change in fluorescence intensity over time was monitored on a SpectraMax M2 (Molecular Devices) using excitation/emission wavelengths of 320/420 nm (IQF peptides) or 360/460 nm (other fluorescent peptides).
AEP activity has traditionally been tracked by monitoring cleavage of the fluorescent substrate Z-AAN-MCA (where Z is carboxybenzyl; MCA is 7-amido-4-methylcoumarin) [Saska et al. (2007) supra; Rotari et al. (2001) Biol. Chem. 382:953-959]. Cleavage C-terminal to the Asn liberates the fluorophore which then fluoresces to report substrate cleavage. […] They are Ac-YVAD-CHO, which is routinely used to identify AEP activity (Hatsugai et al. (2004) Science 305(5685): 855-858) and Ac-STRN-CHO, which represents the P1-P4 residues of the C-terminal kB1 cleavage site. These traditional routes of identifying AEP activity will therefore likely be ineffective for identification of AEPs with cyclizing ability.

[5] = test system: target peptide-linker-ubiquitin-6xHis fusion protein; experiment: AEP-mediated processing of target peptides fused to ubiquitin; format: biochemical; conditions: kalata B1-ubiquitin 260 μg mL^−1, AEP 19.7 μg mL^−1 total protein, 22 h, SDS-PAGE/anti-6xHis Western blot

GLVFAEFLPLFSKFGSRMHILKGHV (R1) [SEQ ID NO:61, R1 peptide derivative]
cyclization of linear precursor peptide by recombinant AEPs [1]: not itself an AEP substrate | inter-molecular ligation, N-terminal labelling ([2]; ligation partner biotin-TRNGL 700 μM): created a new linear peptide that incorporated an N-terminal biotin

GKVFAEFLPLFSKFGSRMHILKNGL (Target peptide; R1) [SEQ ID NO:83, R1 peptide derivative]
cyclization of linear precursor peptide by recombinant AEPs [1]: poor substrate for backbone cyclization | inter-molecular ligation, C-terminal labelling ([2]; ligation partner GLK-biotin 700 μM): created a new linear peptide that incorporated a C-terminal biotin

B1: rOaAEP1b: recombinant Oldenlandia affinis asparaginyl endopeptidase OaAEP1b expressed in E. coli, activated (protein)
chain: MVRYLAGAVLLLVVLSVAAAVSGARDGDYLHLPSEVSRFFRPQETNDDHGEDSVGTRWAVLIAGSKGYANYRHQAGVCHAYQILKRGGLKDENIVVFMYDDIAYNESNPRPGVIINSPHGSDVYAGVPKDYTGEEVNAKNFLAAILGNKSAITGGSGKVVDSGPNDHIFIYYTDHGAAGVIGMPSKPYLYADELNDALKKKHASGTYKSLVFYLEACESGSMFEGILPEDLNIYALTSTNTTESSWCYYCPAQENPPPPEYNVCLGDLFSVAWLEDSDVQNSWYETLNQQYHHVDKRISHASHATQYGNLKLGEEGLFVYMGSNPANDNYTSLDGNALTPSSIVVNQRDADLLHLWEKFRKAPEGSARKEVAQTQIFKAMSHRVHIDSSIKLIGKLLFGIEKCTEILNAVRPAGQPLVDDWACLRSLVGTFETHCGSLSEYGMRHTRTIANICNAGISEEQMAEAASQACASIP
modifications: Oldenlandia affinis OaAEP1b
P2′ substrate specificity (wt vs L31A IQF peptide) [3]: preference for a bulky hydrophobic residue such as Leu at the P2′ position | activity against IQF peptide following low pH activation ([3]; wt IQF peptide 11 μM, fractions diluted 1:14, 90 minutes, pre- vs post-activation): dramatically increased | activity against Z-AAN-MCA [4]: nor rOaAEP1b, rOaAEP3, rOaAEP4 or rOaAEP5 (FIG. 15) had detectable activity | proportion of fusion protein enzymatically processed (loss of precursor) [5]: the bulk of the precursor was being enzymatically processed

B2: rhuLEG: recombinant human legumain (R&D systems), an AEP that preferentially functions as a hydrolase (protein, UniProt Q99538 18-323, looked up)
Legumain: VPIDDPEDGGKHWVVIVAGSNGWYNYRHQADACHAYQIIHRNGIPDEQIVVMMYDDIAYSEDNPTPGIVINRPNGTDVYQGVPKDYTGEDVTPQNFLAVLRGDAEAVKGIGSGKVLKSGPQDHVFIYFTDHGSTGILVFPNEDLHVKDLNETIHYMYKHKMYRKMVFYIEACESGSMMNHLPDNINVYATTAANPRESSYACYYDEKRSTYLGDWYSVNWMEDSDVEDLTKETLHKQYHLVKSHTNTSHVMQYGNKTISTMKVMQFQGMKRKASSPVPLPPVTHLDLTPSPDVPLTIMKRKLMNTN
P2′ substrate specificity (wt vs L31A IQF peptide) [3]: not shared
